# Changes are numbered by the printed parent chain. Names and notes keep the numbering of the source.
# B1: Aer2 1–172 L44H (domain or fragment)
# chain: MGLFNAHAVAQQRADRIATLLQSFADGQLDTAVGEAPAPGYERHYDSLRALQRQLREQRAELQQVESLEAGLAEMSRQHEAGWIDQTIPAERLEGRAARIAKGVNELVAAHIAVKMKVVSVVTAYGQGNFEPLMDRLPGKKAQITEAIDGVRERLRGAAEATSAQLATAAYN
# notes: Aer2, soluble receptor of Pseudomonas aeruginosa, residues 1-172 (HAMP1, HAMP2, HAMP3); also called L44H HAMP1 mutant; source: purified as previously described for the WT protein [7], induction temperature reduced to 18°C
# B2: Aer2 1–172 V33G (domain or fragment)
# chain: B1 chain with V33G, H44L
# notes: Aer2, soluble receptor of Pseudomonas aeruginosa, residues 1-172 (HAMP1, HAMP2, HAMP3); also called HR2 mutant of HAMP1; source: purified as previously described for the WT protein [7], induction temperature reduced to 18°C
# B3: H1C AS1 (Aer2 1–172 D26C, MTSSL spin-labeled) (domain or fragment)
# chain: B1 chain with D26C, H44L
# modifications: MTSSL spin label on the engineered Cys at 26
# notes: Aer2, soluble receptor of Pseudomonas aeruginosa, residues 1-172; source: Aer2 1–172 mutant proteins purified as previously described for the WT protein [7]; spin-labeled with MTSSL
# B4: H2C AS1 (Aer2 1–172 A81C, MTSSL spin-labeled) (domain or fragment)
# chain: B1 chain with H44L, A81C
# modifications: MTSSL spin label on the engineered Cys at 81
# notes: as for B3
# Assays:
# [1] = target: the molecule itself; experiment: crystal structure; Aer2 1–172 mutant proteins; L44H by vapor diffusion, 1.5–1.7 M MgSO4, 0.1 M Tris pH 8.5, room temperature, space group P3(2)12; V33G in conditions and space group of the WT; molecular replacement
# [2] = target: the molecule itself; experiment: pulsed dipolar ESR spectroscopy (PDS, double electron electron resonance); inter-subunit distances between MTSSL spin labels on one engineered Cys per subunit; 17.35 GHz; protein 25–50 µM
Protein,binding result [1],binding result [2]
B1,binds,–
B2,binds,–
B3,–,binds
B4,–,binds

# — paper PMC3570549, “HAMP Domain Conformers That Propagate Opposite Signals in Bacterial Chemoreceptors” (PLoS Biology, 2013)
